This assay has as its system intracellular proteome of ENR+CD and ENR organoids. As to the kind of experiment: LC-MS/MS TMT proteomics of ENR+CD versus ENR organoids. It counts as cell-based, C57BL/6 mice. The settings on record: for change: up = enriched in ENR+CD, down = enriched in ENR, FDR<0.05 and log fold change cut-off.
[1] abbreviates: ENR+CD versus ENR organoids, sample pairs in aggregate (n=4, 2 technical replicates from two biological donors).
Where [2] appears, read: protein abundance ratio ENR+CD versus ENR organoids, sample pair M1-1, LC-MS/MS TMT proteomics.
The mark [3] stands for this setting: protein abundance ratio ENR+CD versus ENR organoids, sample pair M1-2, LC-MS/MS TMT proteomics.
Setting [4] is: protein abundance ratio ENR+CD versus ENR organoids, sample pair M2-1, LC-MS/MS TMT proteomics.
Setting [5] is: protein abundance ratio ENR+CD versus ENR organoids, sample pair M2-2, LC-MS/MS TMT proteomics.
Where [6] appears, read: protein abundance, ENR+CD versus ENR organoids, aggregate of the four sample pairs.
[7] abbreviates: protein abundance, ENR+CD versus ENR organoids, replicate M1-1, log2 ratio.
Where [8] appears, read: protein abundance, ENR+CD versus ENR organoids, replicate M1-2, log2 ratio.
The mark [9] stands for this setting: protein abundance, ENR+CD versus ENR organoids, replicate M2-1, log2 ratio.
Where [10] appears, read: protein abundance, ENR+CD versus ENR organoids, replicate M2-2, log2 ratio.

The text below walks through data of patent publication US11994512B2, “Single-cell genomic methods to generate ex vivo cell systems that recapitulate in vivo biology with improved fidelity” (Massachusetts Institute of Technology, priority 2018, dated 2024).

B1: Q52KI8 (protein, UniProt Q52KI8 1-946, looked up)
chain: MDAGFFRGTSAEQDNRFSNKQKKLLKQLKFAECLEKKVDMSKVNLEVIKPWITKRVTEILGFEDDVVIEFIFNQLEVKNPDSKMMQINLTGFLNGKNAREFMGELWPLLLSAQENIAGIPSAFLELKKEEIKQRQIEQEKLASLKKQDEDKDKRDKEEKESSREKRERSRSPRRRKSRSPSPRRRSSPVRRERKRSHSRSPRHRTKSRSPSPAPEKKEKSPELPEPSVRMKDSSVQEATSTSDILKAPKPEPVPEPKEPSPEKNSKKEKEKTRPRSRSRSKSRSRTRSRSPSHTRPRRRHRSRSRSYSPRRRPSPRRRPSPRRRTPPRRMPPPPRHRRSRSPGRRRRRSSASLSGSSSSSSSSRSRSPPKKPPKRTSSPPRKTRRLSPSASPPRRRHRPSSPATPPPKTRHSPTPQQSNRTRKSRVSVSPGRTSGKVTKHKGTEKRESPSPAPKPRKVELSESEEDKGSKMAAADSVQQRRQYRRQNQQSSSDSGSSSTSEDERPKRSHVKNGEVGRRRRHSPSRSASPSPRKRQKETSPRMQMGKRWQSPVTKSSRRRRSPSPPPARRRRSPSPAPPPPPPPPPPRRRRSPTPPPRRRTPSPPPRRRSPSPRRYSPPIQRRYSPSPPPKRRTASPPPPPKRRASPSPPPKRRVSHSPPPKQRSPTVTKRRSPSLSSKHRKGSSPGRSTREARSPQPNKRHSPSPRPRAPQTSSPPPVRRGASASPQGRQSPSPSTRPIRRVSRTPEPKKIKKTAMATQRNIRRVSKSPKADSLSRAASPSPQSVRRVSSSRSVSGSPEPAAKKPPAPPSPVQSQSPSTNWSPAVPAKKAKSPTPSLSPARNSDQEGGGKKKKKKKDKKHKKDKKHKKHKKHKKEKAVTIATPATAAPAAVSAATTTSAQEEPAAAPEPRKETESEAEDDNLDDLERHLREKALRSMRKAQVSPQS
modifications: full-length
As for B1, the change result is listed as “down”. In addition, the “Average logFC” value under setting [1] was −1.144. Besides, the “M1-1 Log2 Median Normalized” value under setting [2] was −1.036. For the same molecule, the “M1-2 Log2 Median Normalized” value under setting [3] is listed as −0.819. Besides, the “M2-1 Log2 Median Normalized” value under setting [4] is on record as −1.2825. For the same molecule, the “M2-2 Log2 Median Normalized” value under setting [5] is on record as −1.437.

B2: Q571E4 (protein, UniProt Q571E4 1-520, looked up)
chain: MAACTAAQQLLLVLSALGLLAAGAPQPPNIVLLLMDDMGWGDLGVNGEPSRETPNLDRMAAEGMLFPSFYSANPLCSPSRAALLTGRLPIRNGFYTTNAHARNAYTPQEIMGGIPNSEHLLPELLKKAGYTNKIVGKWHLGHRPQFHPLKHGFDEWFGSPNCHFGPYDNKAKPNIPVYRDWEMVGRFYEEFPINRKTGEANLTQLYTQEALDFIQTQHARQSPFFLYWAIDATHAPVYASRQFLGTSLRGRYGDAVREIDDSVGKILSLLQNLGISKNTFVFFTSDNGAALISAPNEGGSNGPFLCGKQTTFEGGMREPAIAWWPGHIAAGQVSHQLGSIMDLFTTSLSLAGLKPPSDRVIDGLDLLPTMLKGQMMDRPIFYYRGNTLMAVTLGQYKAHLWTWTNSWEEFTQGTDFCPGQNVSGVTTHTQEEHTELPLIFHLGRDPGERFPLSFHSDEYQDALSRTTQVVQEHQKSLVPGQPQLNVCNQAVMNWAPPGCEKLGKCLTPPESVPEKCFWAH
modifications: full-length
For the molecule B2, the change entry is recorded as “up”. Further, the “Average logFC” value under setting [1] is listed as 1.207. Further, the “M1-1 Log2 Median Normalized” value under setting [2] worked out at 1.473. For the same molecule, the “M1-2 Log2 Median Normalized” value under setting [3] is 0.565. Besides, the “M2-1 Log2 Median Normalized” value under setting [4] came out at 1.3465. Under setting [5], the “M2-2 Log2 Median Normalized” value was 1.206.

B3: Q3V3I2 (protein, UniProt Q3V3I2 1-354, looked up)
chain: MGSGISSESKESARRSKELEKKLQEDAERDARTVKLLLLGAGESGKSTIVKQMKIIHKNGYSKQECMEFKAVIYSNTLQSILAIVKAMATLGIDYVNPRSREDQEQLHSMANTLEDGDMTPQLAEIIKRLWGDPGIQACFERASEYQLNDSAAYYLNDLDRLTAPGYVPNEQDVLHSRVKTTGIIETQFSFKDLNFRMFDVGGQRSERKKWIHCFEGVTCIIFCAALSAYDMVLVEDEEVNRMHESLHLFNSICNHKYFATTSIVLFLNKKDLFQEKVAKVHLSICFPEYTGPNTFEDAGNYIKNQFLDLNLKKEDKEIYSHMTCATDTQNVKFVFDAVTDIIIKENLKDCGLF
modifications: full-length
B3: the change entry is “down”. For the same molecule, the “Average logFC” value under setting [6] is −1.949. Under setting [7], the “M1-1 Log2 Median Normalized” value is −1.715. The “M1-2 Log2 Median Normalized” value under setting [8] is −1.092. Moreover, the “M2-1 Log2 Median Normalized” value under setting [9] is listed as −2.2685. For the same molecule, the “M2-2 Log2 Median Normalized” value under setting [10] is −2.719.

B4: Q3V1V3 (protein, UniProt Q3V1V3 1-845, looked up)
chain: MSSKQEIMDDQRFRRVSKDPRFWEMPEKERKVKIDKRFRAMFHDKKFKLNYAVDKRGRPISHSTTEDLKRFYDLSDSDSDLSDEESKILSQKKAKQKKKQTKKEAKSIEKPIEEKKKETKKTDQKDSINKHDLNNSERVQKMKNSQKPQKIDSEISPKKDNEEFLQNKKKKRGTTDLSVEALPKGKLRTKDSSTSEMVKSSTMSSSKAKREKQSVVPVIMAKDNDGKMPDEDALEEDSDSASELGSDEESEDEIISDGKTSADEDESEEEDEEEEEDSEEEEEEEEEDESDSGPDLARGKGNVETSSEDEDDLADLFPEEPGFEHAWRELDKDAPRADEITRRLAVCNMDWDRLKAKDLLALFNSFKPKGGVVFSVKIYPSEFGKERMKEEQVQGPVELLSIPEDAPEKDWASREKLRDYQFKRLKYYYAVAECDSPETASKIYEDCDGLEFESSCSFIDLRFIPDDITFDDEPKDVALEVDLTAYKPKYFTSAAMGTSTVEITWDETDHERITTLNRKFKKDELLDMDFQAYLASSSEDEEEVEEAPEGEEGVNIGEDGKTKKSQKDDEEQIAKYRQLLQVIQEKEKKGKENDMEMEIKWVPGLKESAEEMVKNKLEGKDKLTPWEQFLEKKKEKKRLKKKQKALAEEDSEDELPSDVDFNDPYFAEEVKKIGIKKKSMKSAKDSASSEEETDLEKQKAEMALLVMDEEEDSKKHFNYDKIVEHQNLSKKKKKQLMKKKELVEDDFEVNVSDARFQAMYTSHLFNLDPSDPNFKKTKAMEKILEEKARHRERKEELLIQAVERAQQDTGKPTQKQPMDPALSMLIKSVKNKTEQFQARKKQRVK
modifications: full-length
On to B4, for which the change result is listed as “down”. For the same molecule, the “Average logFC” value under setting [6] is on record as −1.244. For the same molecule, the “M1-1 Log2 Median Normalized” value under setting [7] is −1.45. Also, the “M1-2 Log2 Median Normalized” value under setting [8] is listed as −0.805. Under setting [9], the “M2-1 Log2 Median Normalized” value is given as −0.9155. For the same molecule, the “M2-2 Log2 Median Normalized” value under setting [10] is recorded as −1.805.

B5: Q4VAH7 (protein, UniProt Q4VAH7 1-463, looked up)
chain: MGQDAFMELLRSMVGLSLCKIHLLLIAGSCLGLKVTVPSYTVHGIRGQALYLPVHYGFHTPASDIQIIWLFERSHTMPKYLLGSVNKSVVPDLEYQHKFTMMPPNASLLINPLQFTDEGNYIVKVNIQGNGTLSASQKIQVTVDDPVMKPMVQFHPASGAVEYVGNITLTCQVEGGTRLVYQWRKSGKPISINSSHSFSPQNNTLWIVPVTKEDIGNYTCLVSNPVSEMESDIIMPTIYYGPYGLQVNSDKGLKVGEVFTVDLGEAVLFDCSADSYPPNTYSWIQRSDNTTHVIKHGPHLEVASEKVAQKTADYVCCAYNNITGRRDETRFTVIITSVGLEKLAQRGKSLSPLASITGISLFLIISMCLLFLWKKYQPYKAIRQKLEGRPESEYRKAQTFSGHEDALSDFGIYEFVTFPDASGVSRMSSRSSPASDGVTGQDIHGTIYEVIQHIPEQQQENTE
modifications: full-length
For the molecule B5, the change entry is “up”. The “Average logFC” value under setting [1] stood at 1.418. Moreover, the “M1-1 Log2 Median Normalized” value under setting [2] is 1.047. In addition, under setting [3], the “M1-2 Log2 Median Normalized” value stood at 1.639. Also, the “M2-1 Log2 Median Normalized” value under setting [4] came out at 1.2475. Further, under setting [5], the “M2-2 Log2 Median Normalized” value is 1.739.

B6: Q4V9W2 (protein, UniProt Q4V9W2 1-153, looked up)
chain: MAVPGCNKDNVRAGCRKCGYPGHLTFECRNFLRVDPKRDIVLDVSSTSSEDSDEENEELNKLQALQEKRINEEEEKKKEKSREKIKLKKRRKRSYSSATEEDSAKQKKQKYQKKEKKKEKKNKSKKGKHHKKEKKKRKKEKRSSPYHSELTKK
modifications: full-length
For B6, the change result is listed as “down”. Moreover, the “Average logFC” value under setting [1] is recorded as −1.36. The “M1-1 Log2 Median Normalized” value under setting [2] was −1.902. For the same molecule, the “M1-2 Log2 Median Normalized” value under setting [3] is −0.824. Further, the “M2-1 Log2 Median Normalized” value under setting [4] is recorded as −1.2515. Under setting [5], the “M2-2 Log2 Median Normalized” value is reported as −1.464.
